Experimental data as given in publication PMC6490927.

Experiments:
[1] = target: C30-His6 (short form of SafA made by internal translation of the safA mRNA) (Bacillus subtilis); assay: SEC-SAXS; SEC peak fractions of C30; synchrotron SEC-SAXS at BM29 ESRF with in-line HPLC; in the absence of Tgl
[2] = target: C30-His6 (short form of SafA made by internal translation of the safA mRNA) (Bacillus subtilis); assay: SEC; purified C30-His6 applied to a size exclusion column at 3.5 mg/ml; eluted as a main single sharp peak; mass by elution position
[3] = target: C30-His6 (short form of SafA made by internal translation of the safA mRNA) (Bacillus subtilis); assay: SDS-PAGE of the purified protein (species resistant to denaturation); purified C30 without Tgl or at time 0 of the cross-linking assays; 37°C, Tris-HCl 0.1 M, pH 8.0; 10% SDS-PAGE, Coomassie

C30-His6 (short form of SafA made by internal translation of the safA mRNA) (natural protein)
stoichiometry N [1]: 6
stoichiometry N [2]: 6
stoichiometry N [3]: 2
